Laboratory results from article PMC2935290.

Biological target: HLA-DPB1*0101 (human (endogenous in VAVY))
Test: radioligand binding

other: 3.1
Substance: … A7W (peptide)
